Consider 35 molecules from patent publication US20180355014A1.

For one assay, the target named is HLA-A*11:01 (human). The experiment in a line: REVEAL MHC-peptide binding assay, recombinant HLA-A*11:01. To be noted: remark: other sources report otherwise.
A further assay has as its target HLA-B*08:01 (human). Briefly: REVEAL MHC-peptide binding assay, recombinant HLA-B*08:01. Particulars: remark: other sources report otherwise.

Take IFWVQRGNK [… (SEQ ID NO: 86)]: the In Vitro Score (% of positive control peptide) with HLA-A*11:01 (human) was found to be 67.5; with HLA-B*08:01 (human), 0.1. For the molecule WVKRGSKKL [… (SEQ ID NO: 60)], the values for the In Vitro Score (% of positive control peptide) in the assay with HLA-A*11:01 (human) and with HLA-B*08:01 (human) were 11.8 and 56.1, respectively.

Take IFWVARGRK [… (SEQ ID NO: 47)]: the In Vitro Score (% of positive control peptide) with HLA-A*11:01 (human) came out at 34.9; with HLA-B*08:01 (human), 0.

IIFWVSRGR [… (SEQ ID NO: 26)]: the In Vitro Score (% of positive control peptide) with HLA-A*11:01 (human) is 68.9; with HLA-B*08:01 (human), 0. Consider AFIIFWVSR [… (SEQ ID NO: 24)], for which, in the assay with HLA-A*11:01 (human), the In Vitro Score (% of positive control peptide) amounted to 54.

With IIFWVKRGA [… (SEQ ID NO: 69)], the In Vitro Score (% of positive control peptide) in the assay with HLA-A*11:01 (human) was 22.6; in the assay with HLA-B*08:01 (human) it was 0.9. For VAFIIFWVK [… (SEQ ID NO: 16)], in that order: 109 and 0.3. On to IIFWVARGR [… (SEQ ID NO: 46)], for which the results for the In Vitro Score (% of positive control peptide) in the assay with HLA-A*11:01 (human) and with HLA-B*08:01 (human) were 70.6 and 0.3, respectively. As to IFWVHRGRK [… (SEQ ID NO: 41)], the In Vitro Score (% of positive control peptide) in the assay with HLA-A*11:01 (human) is 36.6; in the assay with HLA-B*08:01 (human), 0.1. On the same counts, the results for AFIIFWVAR [… (SEQ ID NO: 45)] are 51.8 and 0.2. Take WVKRGHKKL [… (SEQ ID NO: 68)]: the In Vitro Score (% of positive control peptide) with HLA-A*11:01 (human) was 2.8; with HLA-B*08:01 (human) it was 47.6. Turning to IIFWVHRGR [… (SEQ ID NO: 40)], the In Vitro Score (% of positive control peptide) amounted to 77.5 with HLA-A*11:01 (human) and 0.2 with HLA-B*08:01 (human). Consider IIFWVQRGA [… (SEQ ID NO: 81)], for which the In Vitro Score (% of positive control peptide) with HLA-A*11:01 (human) was determined as 56.5; with HLA-B*08:01 (human), 0.2. Turning to IFWVKRGAK [… (SEQ ID NO: 70)], the In Vitro Score (% of positive control peptide) with HLA-A*11:01 (human) was 69.7; in the assay with HLA-B*08:01 (human) it was 2.2. For the molecule IFWVKRGSK [… (SEQ ID NO: 58)], the In Vitro Score (% of positive control peptide) with HLA-A*11:01 (human) came out at 47.9; with HLA-B*08:01 (human), 1.2. On to IFWVQRGAK [… (SEQ ID NO: 82)], for which the In Vitro Score (% of positive control peptide) in the assay with HLA-A*11:01 (human) is 61.3; with HLA-B*08:01 (human), 0.2. Regarding VAFIIFWVS [… (SEQ ID NO: 23)], the In Vitro Score (% of positive control peptide) with HLA-A*11:01 (human) stood at 25.1; with HLA-B*08:01 (human) it was 0.1. In the case of IIFWVLRGR [… (SEQ ID NO: 33)], the In Vitro Score (% of positive control peptide) with HLA-A*11:01 (human) turned out to be 35.2; with HLA-B*08:01 (human) it was 0.4.

As for IIFWVQRGR [… (SEQ ID NO: 53)], the In Vitro Score (% of positive control peptide) stood at 72.8 with HLA-A*11:01 (human) and 0.1 with HLA-B*08:01 (human). On the same counts, the results for WVQRGNKKL [… (SEQ ID NO: 88)] are 10.7 and 32. IFWVSRGRK [… (SEQ ID NO: 27)]: the In Vitro Score (% of positive control peptide) with HLA-B*08:01 (human) turned out to be 0. As for WVQRGRKKL [… (SEQ ID NO: 56)], the In Vitro Score (% of positive control peptide) was found to be 12.8 with HLA-A*11:01 (human) and 45.1 with HLA-B*08:01 (human). In the case of IFWVKRGNK [… (SEQ ID NO: 74)], the In Vitro Score (% of positive control peptide) with HLA-A*11:01 (human) came out at 45.9; in the assay with HLA-B*08:01 (human) it was 0.1.

For IFWVKRGHK [… (SEQ ID NO: 66)], the results for the In Vitro Score (% of positive control peptide) with HLA-A*11:01 (human) and with HLA-B*08:01 (human) were 30.9 and 3.2, respectively. In the case of IIFWVKRGR [… (SEQ ID NO: 19)], the In Vitro Score (% of positive control peptide) was 54.5 with HLA-A*11:01 (human) and 0 in the assay with HLA-B*08:01 (human). On to IIFWVKRGN [… (SEQ ID NO: 73)], for which the figures for the In Vitro Score (% of positive control peptide) with HLA-A*11:01 (human) and with HLA-B*08:01 (human) were 42.1 and 0.9, respectively.

For the molecule WVKRGAKKL [… (SEQ ID NO: 72)], the In Vitro Score (% of positive control peptide) with HLA-A*11:01 (human) came out at 4.6; with HLA-B*08:01 (human), 34.1. Turning to IFWVKRGLK [… (SEQ ID NO: 62)], the In Vitro Score (% of positive control peptide) in the assay with HLA-A*11:01 (human) was determined as 61.1; in the assay with HLA-B*08:01 (human), 58.3. Regarding AFIIFWVHR [… (SEQ ID NO: 38)], in the assay with HLA-A*11:01 (human), the In Vitro Score (% of positive control peptide) was determined as 34.9. With IIFWVKRGS [… (SEQ ID NO: 57)], the In Vitro Score (% of positive control peptide) with HLA-B*08:01 (human) came out at 0.4. On to WVARGRKKL [… (SEQ ID NO: 49)], for which the In Vitro Score (% of positive control peptide) with HLA-A*11:01 (human) was 13.8; with HLA-B*08:01 (human), 32.4. For IIFWVKRGL [… (SEQ ID NO: 61)], the In Vitro Score (% of positive control peptide) with HLA-A*11:01 (human) is 32.4; with HLA-B*08:01 (human) it was 1.7. Take WVKRGNKKL [… (SEQ ID NO: 76)]: the In Vitro Score (% of positive control peptide) is 4.1 with HLA-A*11:01 (human) and 65.9 with HLA-B*08:01 (human). On to IFWVQRGRK [… (SEQ ID NO: 54)], for which the In Vitro Score (% of positive control peptide) in the assay with HLA-A*11:01 (human) is 128; with HLA-B*08:01 (human), 0. FIIFWVHRG [… (SEQ ID NO: 39)]: the In Vitro Score (% of positive control peptide) with HLA-A*11:01 (human) turned out to be 0.9; with HLA-B*08:01 (human), 0.2.
